What is called Kd is the constant that tells how readily two partners part at equilibrium. The low end stands for a tighter complex, the high end for a looser complex.

The experiment concerns the target F-actin (rabbit skeletal muscle actin filaments) (rabbit, UniProt P68135 1-377). The experiment in a line: co-sedimentation.

B1: synapsin I phosphorylated on all three sites (natural protein)
chain: not shown
modifications: phosphorylated on all three sites (sites 1, 2 and 3); 2.6 mol phosphate/mol synapsin I
In turn, B1 came in with a Kd of 1800 nM.

B2: dephosphorylated synapsin I (natural protein)
chain: not shown
On to B2, for which the Kd worked out at 2000 nM.

(Values after PMC2115537 (The Journal of Cell Biology, 1989).)
